Source: article doi:10.1101/197848

Biological target: Xenopus Smc3R626C-Halo (subunit of the hinge-substituted recombinant tetramer, not crosslinked) (Xenopus) (UniProt O93309)
Test: cross-linking

Substance: Xenopus Smc1D566C (subunit of the hinge-substituted recombinant tetramer) (from UniProt O93308 1-1232) (natural protein)
- crosslinking efficiency: 40%
